Earlier results on 13 molecules are cited in patent US20250282866A1, “TREATMENT OF DISEASES RELATED TO ATP-BINDING CASSETTE TRANSPORTER 1 DYSFUNCTION USING TREM2 AGONISTS” (VIGIL NEUROSCIENCE, INC., priority 2020, published 2025).

Where a chain is given by its changes, count along the chain named. Names and notes keep the numbering of the source.

In this data set the target is T1, human TREM2 (Homo sapiens, UniProt Q9NZC2).
T1 sequence (Q9NZC2 19-230): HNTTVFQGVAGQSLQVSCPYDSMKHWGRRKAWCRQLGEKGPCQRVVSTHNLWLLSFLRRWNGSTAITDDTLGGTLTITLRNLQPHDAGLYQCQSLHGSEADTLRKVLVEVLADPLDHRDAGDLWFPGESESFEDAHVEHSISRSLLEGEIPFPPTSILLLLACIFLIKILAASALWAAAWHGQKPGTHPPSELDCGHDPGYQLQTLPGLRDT
Particulars: for Binding Signal (fold over 6E7 Parental antibody) 1st screen 110 nM or 10 nM: values printed without asterisk, concentration 110 nM or 10 nM (footnote a not given).

B1: V17: 6E7 variant: VH T30G, Q99S; VL L54R, F94S (antibody, V domains shown)
VH: EVQLVQSGAEVKKPGESLKISCKGSGYSFGSYWIAWVRQMPGKGLEWMGIIYPGDSDTRYSPSFQGQVTISADKSISTAYLQWSSLKASDTAMYFCARSRTFYYDSSDYFDYWGQGTLVTVSS
VL: DIQMTQSPSSVSASVGDRVTITCRASQGISSWLAWYQQKPGKAPKLLIYAASSRQNGVPSRFSGSGSGTDFTLTISSLQPEDFATYFCQQADSSPRTFGQGTKLEIK
For B1, the “Binding Signal (fold over 6E7 Parental antibody) 1st screen 110 nM or 10 nM” value is on record as 5.37 fold over 6E7 Parental antibod, the “Binding Signal (fold over 6E7 Parental antibody) 2nd screen 2 nM” value is 4.22 fold over 6E7 Parental antibod and the “Binding Signal (fold over 6E7 Parental antibody) 2nd screen 10 nM” value is given as 5.51 fold over 6E7 Parental antibod.

B2: V26: 6E7 variant: VH A35G, I50T, F102M, Y112A; VL N56R, F94Y (antibody, V domains shown)
VH: B1 VH with G30T, A35G, I50T, S99Q, F102M, Y112A
VL: B1 VL with R54L, N56R, S94Y
For the molecule B2, the “Binding Signal (fold over 6E7 Parental antibody) 1st screen 110 nM or 10 nM” value is 3.57 fold over 6E7 Parental antibod, the “Binding Signal (fold over 6E7 Parental antibody) 2nd screen 2 nM” value is 2.83 fold over 6E7 Parental antibod and the “Binding Signal (fold over 6E7 Parental antibody) 2nd screen 10 nM” value is recorded as 3.47 fold over 6E7 Parental antibod.

B3: V37: 6E7 variant: VH F29H, Q65A, Q99S; VL N56W, F94Y (antibody, V domains shown)
VH: B1 VH with F29H, G30T, Q65A
VL: B1 VL with R54L, N56W, S94Y
Turning to B3, the “Binding Signal (fold over 6E7 Parental antibody) 1st screen 110 nM or 10 nM” value is 3.46 fold over 6E7 Parental antibod, the “Binding Signal (fold over 6E7 Parental antibody) 2nd screen 2 nM” value is 3.69 fold over 6E7 Parental antibod and the “Binding Signal (fold over 6E7 Parental antibody) 2nd screen 10 nM” value is listed as 3.49 fold over 6E7 Parental antibod.

B4: V40: 6E7 variant: VH T30G, T58V, F110S; VL N56L, S93R (antibody, V domains shown)
VH: B1 VH with T58V, S99Q, F110S
VL: B1 VL with R54L, N56L, S93R, S94F
As to B4, the “Binding Signal (fold over 6E7 Parental antibody) 1st screen 110 nM or 10 nM” value was 4.48 fold over 6E7 Parental antibod, the “Binding Signal (fold over 6E7 Parental antibody) 2nd screen 2 nM” value is given as 3.41 fold over 6E7 Parental antibod and the “Binding Signal (fold over 6E7 Parental antibody) 2nd screen 10 nM” value is on record as 4.16 fold over 6E7 Parental antibod.

B5: V27: 6E7 variant: VH S61A, Q99S; VL N56R (antibody, V domains shown)
VH: B1 VH with G30T, S61A, A97V
VL: B1 VL with R54L, N56R, S94F
As to B5, the “Binding Signal (fold over 6E7 Parental antibody) 1st screen 110 nM or 10 nM” value was 5.50 fold over 6E7 Parental antibod, the “Binding Signal (fold over 6E7 Parental antibody) 2nd screen 2 nM” value is 5.67 fold over 6E7 Parental antibod and the “Binding Signal (fold over 6E7 Parental antibody) 2nd screen 10 nM” value was 5.69 fold over 6E7 Parental antibod.

B6: V28: 6E7 variant: VH T30Q, I50T, Y103F; VL N56S, F94L (antibody, V domains shown)
VH: B1 VH with G30Q, I50T, S99Q, Y103F
VL: B1 VL with R54L, N56S, S94L
For the molecule B6, the “Binding Signal (fold over 6E7 Parental antibody) 1st screen 110 nM or 10 nM” value is given as 3.08 fold over 6E7 Parental antibod, the “Binding Signal (fold over 6E7 Parental antibody) 2nd screen 2 nM” value is 2.63 fold over 6E7 Parental antibod and the “Binding Signal (fold over 6E7 Parental antibody) 2nd screen 10 nM” value is 3.61 fold over 6E7 Parental antibod.

B7: V36: 6E7 variant: VH I34L, Q99S; VL L54R, F94Y (antibody, V domains shown)
VH: B1 VH with G30T, I34L
VL: B1 VL with S94Y
As for B7, the “Binding Signal (fold over 6E7 Parental antibody) 1st screen 110 nM or 10 nM” value is 3.38 fold over 6E7 Parental antibod, the “Binding Signal (fold over 6E7 Parental antibody) 2nd screen 2 nM” value is 4.00 fold over 6E7 Parental antibod and the “Binding Signal (fold over 6E7 Parental antibody) 2nd screen 10 nM” value is listed as 3.44 fold over 6E7 Parental antibod.

B8: V49: 6E7 variant: VH T30N, I50T, Y60L, Q99S; VL L54R, F94Y (antibody, V domains shown)
VH: B1 VH with G30N, I50T, Y60L
VL: B1 VL with S94Y
B8: the “Binding Signal (fold over 6E7 Parental antibody) 1st screen 110 nM or 10 nM” value is on record as 6.51 fold over 6E7 Parental antibod, the “Binding Signal (fold over 6E7 Parental antibody) 2nd screen 2 nM” value is listed as 5.02 fold over 6E7 Parental antibod and the “Binding Signal (fold over 6E7 Parental antibody) 2nd screen 10 nM” value is reported as 6.58 fold over 6E7 Parental antibod.

B9: V25: 6E7 variant: VH T30G, I50L, Q99S; VL Q55A, F94M (antibody, V domains shown)
VH: B1 VH with I50L
VL: B1 VL with R54L, Q55A, S94M
For B9, the “Binding Signal (fold over 6E7 Parental antibody) 1st screen 110 nM or 10 nM” value is recorded as 4.23 fold over 6E7 Parental antibod, the “Binding Signal (fold over 6E7 Parental antibody) 2nd screen 2 nM” value is 3.15 fold over 6E7 Parental antibod and the “Binding Signal (fold over 6E7 Parental antibody) 2nd screen 10 nM” value was 4.70 fold over 6E7 Parental antibod.

B10: V48: 6E7 variant: VH T30G, T58V, Q99M; VL N56T, F94L (antibody, V domains shown)
VH: B1 VH with T58V, S99M
VL: B1 VL with R54L, N56T, S94L
Consider B10, for which the “Binding Signal (fold over 6E7 Parental antibody) 1st screen 110 nM or 10 nM” value is 2.42 fold over 6E7 Parental antibod, the “Binding Signal (fold over 6E7 Parental antibody) 2nd screen 2 nM” value is recorded as 2.30 fold over 6E7 Parental antibod and the “Binding Signal (fold over 6E7 Parental antibody) 2nd screen 10 nM” value was 2.54 fold over 6E7 Parental antibod.

B11: V38: 6E7 variant: VH T30G, T58V; VL L54R, F94H (antibody, V domains shown)
VH: B1 VH with T58V, S99Q
VL: B1 VL with S94H
Turning to B11, the “Binding Signal (fold over 6E7 Parental antibody) 1st screen 110 nM or 10 nM” value was 4.34 fold over 6E7 Parental antibod, the “Binding Signal (fold over 6E7 Parental antibody) 2nd screen 2 nM” value was 3.44 fold over 6E7 Parental antibod and the “Binding Signal (fold over 6E7 Parental antibody) 2nd screen 10 nM” value is 4.36 fold over 6E7 Parental antibod.

B12: V39: 6E7 variant: VH T30G, S61N, Q99G; VL Q55V, F94S (antibody, V domains shown)
VH: B1 VH with S61N, S99G
VL: B1 VL with R54L, Q55V
B12: the “Binding Signal (fold over 6E7 Parental antibody) 1st screen 110 nM or 10 nM” value is recorded as 6.15 fold over 6E7 Parental antibod, the “Binding Signal (fold over 6E7 Parental antibody) 2nd screen 2 nM” value is listed as 5.11 fold over 6E7 Parental antibod and the “Binding Signal (fold over 6E7 Parental antibody) 2nd screen 10 nM” value is reported as 5.81 fold over 6E7 Parental antibod.

B13: V24: 6E7 variant: VH T58V, Q99S; VL N56K, R96H (antibody, V domains shown)
VH: B1 VH with G30T, T58V
VL: B1 VL with R54L, N56K, S94F, R96H
Consider B13, for which the “Binding Signal (fold over 6E7 Parental antibody) 1st screen 110 nM or 10 nM” value was 2.64 fold over 6E7 Parental antibod, the “Binding Signal (fold over 6E7 Parental antibody) 2nd screen 2 nM” value is given as 1.42 fold over 6E7 Parental antibod and the “Binding Signal (fold over 6E7 Parental antibody) 2nd screen 10 nM” value was 2.90 fold over 6E7 Parental antibod.
